Patent US20240269306A1, “B7H4-TARGETED ANTIBODY-DRUG CONJUGATES AND METHODS OF USE THEREOF” (Mersana Therapeutics, Inc., priority 2021, published 2024)
Read-outs that look alike come from different tables or passages of the source.

Legend:
[1] = molecular target: T1, Recombinant human B7-H4 protein (R&D Systems #6576-B7-050) (human) (UniProt Q7Z7D3); experiment: BLI (Octet), antibody on anti-human Fc sensor, human B7-H4 in solution, 25 C
T1 sequence: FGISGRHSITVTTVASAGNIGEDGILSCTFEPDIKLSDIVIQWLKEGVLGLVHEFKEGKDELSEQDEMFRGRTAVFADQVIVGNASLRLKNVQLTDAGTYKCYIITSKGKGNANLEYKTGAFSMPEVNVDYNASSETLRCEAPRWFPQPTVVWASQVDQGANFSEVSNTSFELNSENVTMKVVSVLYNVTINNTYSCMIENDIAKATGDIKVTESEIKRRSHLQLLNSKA

[2] = molecular target: T1, Recombinant human B7-H4 protein (R&D Systems #6576-B7-050) (human); experiment: BLI (Octet)
[3] = molecular target: T1, Recombinant human B7-H4 protein (R&D Systems #6576-B7-050) (human); experiment: ELISA, coated recombinant human B7-H4
[4] = molecular target: T2, Human B7-H4 on the cell surface (MX-1, HCC1569, CAMA-1 cells; HEK-293 cells stably transfected with human B7-H4) (human) (UniProt Q7Z7D3); experiment: flow cytometry, MX-1 cells
T2 sequence: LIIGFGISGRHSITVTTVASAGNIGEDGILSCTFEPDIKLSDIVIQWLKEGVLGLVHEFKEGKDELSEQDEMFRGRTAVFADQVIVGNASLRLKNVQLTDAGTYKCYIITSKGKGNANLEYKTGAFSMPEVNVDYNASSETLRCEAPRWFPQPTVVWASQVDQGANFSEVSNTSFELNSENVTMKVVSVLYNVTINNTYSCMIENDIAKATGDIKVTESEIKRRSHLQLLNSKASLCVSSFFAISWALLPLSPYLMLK

[5] = molecular target: T2, Human B7-H4 on the cell surface (MX-1, HCC1569, CAMA-1 cells; HEK-293 cells stably transfected with human B7-H4) (human); experiment: flow cytometry, MX-1 cells; remark: listed apart in the source
[6] = molecular target: T1, Recombinant human B7-H4 protein (R&D Systems #6576-B7-050) (human); experiment: ELISA, coated recombinant human B7-H4; remark: listed apart in the source
[7] = molecular target: T2, Human B7-H4 on the cell surface (MX-1, HCC1569, CAMA-1 cells; HEK-293 cells stably transfected with human B7-H4) (human); experiment: flow cytometry, HCC1569 cells

B1: 1D11 antibody (antibody, from another filing, V domains shown)
VH: QVQLQQSGAELVRPGTSVKMSCKASGYTFTSYWIGWAKQRPGHGFEWIGDIYPGGGYTNYNEKFKGKATLTADKSSSTAYMQFSSLTSEDSAIYYCARLDGSSYRGAMDSWGQGTSITVSS
VL: DIQMTQSPSSLSASLGGKVTITCKASQGFNKYVAWYQHKPGQCPRLLIHYTSTLQPGIPARFSGSGSGRDYSFSISNLEPEDSATYFCLQYGNLLYAFGGGTKLEIKR
- Kd [1]: 0.117 nM
- koff [1]: 1.46e-05 s⁻¹
- kon [1]: 125000 M⁻¹ s⁻¹
- fold difference of kon against B7-H4 2F9 and variant antibodies [2]: < 2 fold
- fold lower Kd than B7-H4 2F9 [2]: > 100 fold
- EC50 [3]: 0.86 nM
- EC50 [4]: 8.83 nM
- EC50 [5]: 4.9 nM
- EC50 [6]: 0.52 nM
- EC50 [7]: 3.44 nM
